Source: the supplement of paper PMC10567573

B1: RHOBTB3 (parent)
chain: GGADIIVIKYNVNDKFSFHEVKDN
B2: SNAP91 (parent)
chain: FSTDAFSSPPQGASPVPESSLTAD

Variants of: B1
Test: protein stability index of a GFP-peptide fusion (GPS, HEK-293T) (PSI 1-6); higher = more stable
Details: c terminus: a fixed tail appended
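Also: lentivirally expressed fusions sorted by FACS into six bins by GFP to DsRed ratio, PSI derived from sequencing read proportions per bin multiplied by bin number.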

Protein stability index of substitutions, site by site:
Y10: M 1.94, L 3.82, E 2.29, A 1.27, K 1.82, F 2.26, S 1.88, Q 1.62, H 1.92, T 1.92, C 3.4, P 2.77, D 3.68, N 2.03, R 2.53, W 3.26, G 2.19, V 3.23, I 4.15
S17: T 2.25, C 2.27, P 2.54, E 2.94, V 1.73, Y 1.63, A 3.54, Q 2.36, H 2.69, K 3.18, G 2.54, I 2.65, D 2.64, R 2.35, N 3.14, F 3.05
I8: E 4.25, F 1.44, Q 3.48, G 2.92, A 1.78, C 2.22, L 1.47, H 3.35, D 3.81, R 3.17, N 4.41, Y 1.59, W 2.04, T 2.95, P 1.32, S 3.71, V 1.81, K 3.96, M 1.89
F18: D 2.26, G 2.03, P 1.95, I 1.95, A 3.47, R 4.04, L 2.53, M 1.87, S 1.86, V 2.49, Q 1.99, H 1.76, K 1.78, W 2.08, T 2.63, N 1.39, E 1.76, Y 2.72, C 3.13
V12: G 2.7, N 2.66, W 3.56, I 3.31, M 2.67, P 2.13, L 2.24, D 1.95, R 2.8, Q 2.3, K 1.82, T 2.73, Y 2.38, S 1.9, A 2.83, H 1.92, E 1.72
I6: M 1.92, T 2.45, Y 2.23, N 3.83, S 3.63, L 3.33, V 1.77, W 1.79, Q 3.98, P 4.12, R 3.1
K22: P 3.07, A 2.89, Q 2.01, D 2.36, C 2.88, V 3.25, N 2.1, T 2.58, F 4.16, Y 3.11, S 2.52, M 2.35, G 2.76, L 2.43, H 3.97, W 2.75, R 2.61, E 3.13
D14: S 3.4, W 2.63, I 4.53, M 1.62, Y 3.38, R 2.36, E 2.8, K 3.14, F 3.63, A 3.34, N 3.12, G 1.72, V 4.54, T 2.67, H 2.94
V7: R 1.67, L 2.3, P 4.13, M 2.06, K 2.33, H 2.28, I 2.46, S 2.17, T 1.6, N 2.85, D 4.15, Y 2.29, Q 2.31, F 3.21, W 1.52, A 2.17, G 2.5, E 3.28, C 1.79
H19: M 3.71, F 3.33, N 3.79, K 2.44, G 2.55, Q 3.57, P 2.55, D 1.95, C 3.17, Y 3.29, S 2.72, V 2.72, I 1.54, E 2.5, T 2.52, A 2.27, R 2.82
K15: E 2.03, D 4.13, Y 2.75, H 2.87, N 3.83, G 4.47, W 3.18, P 2.59, C 4.37, V 3.95, L 3.48, F 2.8, S 2.73, Q 2.13
N24: D 1.94, K 2.73, H 2.14, F 3.49, R 1.86, M 3.25, C 2.34, L 3.07, E 1.44, G 3, I 2.21, A 2.09, V 3.86, T 4.04, S 2.71
N13: Q 3.3, L 2.87, K 2.92, I 2.93, Y 1.67, R 1.99, H 2.57, A 3.68, W 1.96, T 1.57, D 1.88, F 3.47, V 3.83, P 3.19, E 2.71
D23: P 3.16, A 2.71, M 2.02, T 4.21, V 2.83, S 2.21, C 2.08, G 2.34, L 3.42, Y 2.28, I 2.36, H 3.28, Q 2.76, N 2.44, W 3.21, E 2.68
N11: M 3.72, S 2.23, R 2.45, T 2.43, F 1.97, Q 3.46, K 4.82, V 3.99, G 3.11, H 3.1, E 1.76, W 3.58, I 2.24, D 2.29, P 3.2, A 2.36
F16: V 1.98, L 1.63, E 2.12, T 2.33, S 3.13, N 1.84, K 1.73, C 2.2, H 1.53, P 2.55, Q 1.85, I 2.88, Y 2.62, G 2.74, A 2.24, D 2.07, W 4.02, R 1.6, M 2.04
E20: H 1.9, L 2.02, S 2.76, Y 2.26, A 1.55, I 2.61, D 3.45, P 1.33, V 2.1, C 3.82, M 2.91, R 2.93, G 2.78, F 2.75, T 1.52, W 2.67, K 1.88, N 3.38
V21: F 3.01, S 2.5, L 2.72, I 2.23, Y 2.98, T 1.46, M 3.97, A 3.15, W 2.15, Q 2.29, C 1.96, G 3.4, E 1.37, H 2.15, P 2.01, N 1.66, D 1.3, R 2.42, K 2.59
K9: H 3.31, G 3.78, I 4.01, R 2.33, L 2.84, P 2.07, A 1.67, M 3.15, C 2.65, F 3.82, T 2.97, Y 2.89, D 1.66, W 3.44

Variants of: B2
Test: as above
Details: c terminus: a fixed tail appended

Protein stability index of substitutions, site by site:
F1: D 5.72, Q 5.64, L 5.57, S 5.65, G 5.54, P 5.68, N 5.74, R 5.39, K 5.34, W 5.19, A 5.73, V 5.52, I 5.36, T 5.55, M 5.44, H 5.37, C 5.07, E 5.47
